Reference: the supplement of paper PMC11502859

Tested on: HEK293T
Test: median enrichment of reporter reads in eGFP-reduced (low/intermediate) vs eGFP-high sorted cells (eGFP-extension fusion abundance) (ratio); higher = stronger loss of eGFP-fusion protein abundance (more destabilising extension)
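Note: lentiviral eGFP-IRES-mCherry reporter pool sorted by FACS 96 h post-transduction, gated on mCherry-high cells, Illumina read counts normalized per million, median across four biological replicates.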

| Substance | median enrichment |
| --- | --- |
| QGTCPGSS [UBE2T] | 0.477 |
| QGVSLSLSFCIICLAECVYRLPKFTKKL [VNN2] | 10.5 |
| QHEKDWGGQGGQPAEMRGAGGHSPFSGLDPLRSSPTSCTDNAL [MAP3K9] | 0 |
| QHGETPSLLKIQKKLARHGGGRL [FBLIM1] | 0.0978 |
| QHGGFGS [AKAIN1] | 0.844 |
| QHLPEETPLPTLPERGSLRTGWRRWGPSRAPGALPGMSRPTHPKAGAAAPCCPSPGLGNDDPPKSPSAPQTQGLRPPAPGIRE [FXYD7] | 0.759 |
| QHLQEEEEKEGTPDWI [GPR158] | 1.29 |
| QHLVQQ [IFNA13] | 0.328 |
| QHQ [ANKRD6] | 0.522 |
| QHTQNSLTRTISFCKGF [KRR1] | 1.62 |
| QHWGRLPHPASGKPVAGHRVVPPVPS [SCLY] | 11 |
| QHYS [C4BPB] | 0.456 |
| QICIIQAYLVKQTHIMGLGNIYLSKFAITDLGFFPFFEGKFNYIALLFFPLRDSLLGKCFLRTKI [CHMP5] | 4.31 |
| QIKLAVRNAKSC [RBMX] | 6.47 |
| QIL [TMEM244] | 0.849 |
| QIQGHK [RILPL2] | 0.367 |
| QIRI [TADA1] | 0.507 |
| QISTNKSKTNSRIPDCPIPI [PTCHD3] | 2.49 |
| QKCGKAFTKSSYCVQHLKFNTEQMQYKCNDSGRTFIILEGL [ZNF736] | 4.28 |
| QKGRAQQCK [IRX2] | 1.1 |
| QKGSGPGIHVGGRGRGGRREGRGEIHTVDTLTSWPKSLPQDLPDLHGQASYGGVSISFFLFLFPGLRASWGPRFTNSPTPLKL [AQP1] | 6.27 |
| QKILPSLVVGTDRIHLTQTSSFTDFNYLFLKT [WSB1] | 2.9 |
| QKKPL [NFATC2] | 0.453 |

| Substance | median enrichment |
| --- | --- |
| QKMTQKLEPTKLLTPC [ADGRL3] | 1.01 |
| QKPYEYCEYGKAI [ZNF569] | 0.563 |
| QKQPQGSINNICQLNLLSSNAKKGEWRVQD [PAPOLA] | 2.06 |
| QKRMMMTFIIHKQWEVQQCLGADLRRRMIFLSLLTT [MROH9] | 20.2 |
| QKVPLANCLEAQHNPKALFR [HIST1H1E] | 2.26 |
| QLDHDLVQ [TRAT1] | 0.266 |
| QLFLKMAIVYEICISVSLYKF [NUP133] | 11.5 |
| QLFTLFFYIYLYIYIKIGS [CBX3] | 10.2 |
| QLGAHIKCFILHTWTLKPGCACILKQQSSHSFRQMFSVSEENMFSEEKTFRQMFSEEKKGKLGVGRC [PRAME] | 9.08 |
| QLGPAWKASAPCTHTDRNFRDCGVETGAQALQRVALKL [RAB36] | 7.77 |
| QLICYVNLSFAFLFD [DGKB] | 13.9 |
| QLLVPPSLLVIRFPRLTP [PITRM1] | 9.11 |
| QLPMPPQNWLLRVN [TSC22D1] | 4.17 |
| QLRILKRSHGKTS [NBN] | 7.35 |
| QLRTLPFFPLSSLPLPFLPIYPFPSSKSTQGEENKMTTQDLVAKILHSKSSFV [FGF12] | 4.18 |
| QLSLPPQPGSPALESSVLHAEDAPSLDWSGLLPNDIAQRLWSRHPAEWGPRGCQLGALPLAATLWSGRVLHHQEDPILSSVSC [INAFM1] | 4.8 |
| QLVKTMGVVLTQPPIPQGASGQSFWHCSRIPPSWCVWRVGKAGRDINLEENT [ARHGEF25] | 6.94 |
| QLYHYSRSSSQHHLLATWDV [GCG] | 16.8 |
| QLYSTKIFKDWFLF [DIS3] | 11.1 |
| QLYVGLSLEYVWSPGLSRLEQQSLLLAYHRD [ZFYVE21] | 9.76 |
| QMTKP [RBFOX1] | 0.233 |
| QNASVRIKD [BORA] | 0.475 |
| QNILCTALVISDLD [MALSU1] | 7.03 |

| Substance | median enrichment |
| --- | --- |
| QNIQVINELCYGIIALLYAG [CC2D2B] | 8.94 |
| QNIYRVTKNKQSKKKTVY [LRRC4C] | 31.9 |
| QNLREPVV [CEP89] | 0.464 |
| QNNVSYFSIKDHLKLLIPNIN [DMAC2L] | 12.2 |
| QNRIEQNRIE [PCSK5] | 0.813 |
| QNTFLL [CFAP97] | 0.56 |
| QPDKRNKLFFLMDCSKRSLKIPWLSTYKTYYLNKEEYYVNIHIKNFGGFEKNELYIYKSTLKTNFNCLKQLF [NLGN1] | 24 |
| QPETGGSPPARSGASSCQSSWCYPLNPSAATATVGLRVSEQERKDKLFVVPTMLRFGNPGVFPGGLRKQSL [TNFAIP3] | 4.84 |
| QPGT [ZNF445] | 1.04 |
| QPHGAVLLMLEAS [ESPL1] | 6.52 |
| QPKTRGSDLC [EPC2] | 0.415 |
| QPPAILPHPPPSPPVSTWSALPHPPPTELGCITFFHLKERSRF [MROH5] | 4.47 |
| QPPARQRGHRRASPECRPWVAGPGSLVPPGGHRHRLAWQAGPLCHPLLGACRPFPSTPQVFQALLPQFPKWNHLTSAAPDLPG [SECTM1] | 4.68 |
| QPSSCKAIAKQGGSLQSMPGDYVSQGGPMGMSMAQPSYTPPQMTPHPTQLRHGPPMHSYLPSHPHHPAMMMHGGPPTHPGMTM [MEIS2] | 3.91 |
| QPTGDPDLILNRRRLRDSRRHRSCPQWTPMNPSQPGPLTKTTRTSWELWDSLDSAVKDD [LILRB5] | 1.48 |
| QPWGWTVDPTSLREGGMAGCEDNSS [POLR3H] | 0.421 |
| QPWQ [ADGRL3] | 0.354 |
| QPWSITLPPSPGTTGPITFECCIWISRCLCGSLPHFSWT [UBE2Q1] | 7.69 |
| QQFSHFLHLSDRTHHLCLP [ZDHHC15] | 20.5 |
| QQLRLHQRQHTKKL [BCAS3] | 1.16 |
| QQQ [Gln03] | 0.325 |
| QQQQ [Gln04] | 0.501 |
| QQQQQ [Gln05] | 0.381 |

| Substance | median enrichment |
| --- | --- |
| QQQQQQ [Gln06] | 0.198 |
| QQQQQQQ [Gln07] | 0.347 |
| QQQQQQQQ [Gln08] | 0.342 |
| QQQQQQQQQ [Gln09] | 0.104 |
| QQQQQQQQQQ [Gln10] | 0.317 |
| QQQYYRGLNNTTKSIWIA [NCAM2] | 25 |
| QRCEGIGETLGWLVMVSIAGHQKLDS [B4GALNT2] | 4.77 |
| QRFSSEKNLCLIF [PHACTR3] | 9.78 |
| QRHASFTISGKRTHCAYSDCRVYKRQPFGYYCCKVQILQASSDICIYCHYCLWKKQGIKVPVHLMYYFL [NEUROD1] | 14.6 |
| QRHGVLGGLMGTGACIFCWGMKLITLL [AGBL4] | 4.93 |
| QRKKRKTALGLAYGLRGCCC [WEE2] | 6.66 |
| QRLAPACTPAPAAGSPQSQPFGTVLTL [ABCG4] | 28.4 |
| QRLDMLSPNEPLSSPGEGR [ISX] | 0.656 |
| QRLMQERCEGLRAGDCAILKPPLDLRTPRVGTSRVVGQPGSLYCGFSEA [MEIS3] | 6.79 |
| QRLQCLLRRKIKFTSSKVTLEDRALGMSFFF [OR2C3] | 5.9 |
| QRPLPGPSPAPRAPRPGPGARQTPACAPAERRLETGATASRVQQHSRHGSGRDSAWPRGTFPGQGPGGNWHGLVPLLCCILIP [ANKRD13B] | 7.68 |
| QRPVLVSHPCHSRSLPVPLLPKMPWLDWTPSPHDHASDCHPLPVPKSMCTPLTTGTAPPNHRHQATI [PTPRCAP] | 8.88 |
| QRQ [GNB1] | 0.344 |
| QRRERCASILEGQQEAELFCLDSHHGPFAENCLGFQQLHICICEL [TAFA4] | 18.2 |
| QRRQMQTKAT [TWSG1] | 0.373 |
| QRTTEHLVSQNGLTTVSTTYSQMSISTSVELK [CYLC1] | 1.57 |
